Biological target: RIIα-D/D(1–44) used for ITC (human, UniProt P13861 1-44)
Test: ITC

Sequence of RIIα-D/D(1–44) used for ITC (P13861 1-44): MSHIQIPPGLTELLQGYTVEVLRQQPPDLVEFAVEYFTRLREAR

NGGEPDDAELVRLSKRLVENAVLKAVQQYLEETQNKNKPGE (domain or fragment, human) [AKAP18β(43–83)] was tested, and the Kd was 600 pM, the dH was -22550 ± 171 and the “stoichiometry N” value was 0.98 sites.

Reference: PMC4964276 (The Biochemical journal, 2016)
